Assay results taken from patent publication US20170267764A1 (INNATE PHARMA, published 2017).
Numbering of substitutions follows the chain as printed. Blank lines part the entries; values can stand above or below the binder they belong to.

Legend:
[1] = target: T1, human MICA allele MICA*001 (human, UniProt Q29983 24-297); experiment: flow cytometry, C1R-MICA*001 transfectant cells
T1 construct: Expressed on transfected C1R cells; also called MICA*01; C1R-MICA*001
T1 sequence: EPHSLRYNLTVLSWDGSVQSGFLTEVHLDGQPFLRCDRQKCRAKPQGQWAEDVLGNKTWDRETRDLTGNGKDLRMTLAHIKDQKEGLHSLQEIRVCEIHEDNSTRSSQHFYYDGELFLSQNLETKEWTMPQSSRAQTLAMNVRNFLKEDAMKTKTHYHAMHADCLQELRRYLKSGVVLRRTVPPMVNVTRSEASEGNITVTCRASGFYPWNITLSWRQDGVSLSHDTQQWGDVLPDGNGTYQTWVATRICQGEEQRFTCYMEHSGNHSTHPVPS
Method: (§1) The binding of the antibodies in Table 2 of Example 1 were tested for binding to MICA-expressing C1R transfectant cells (ATCC reference CRL-1993™) transfected with RSV.5neo vectors (GenBank (NCBI) under Accession number M83237), as described in Salih et al. (2003) Blood 102(4): […], referred to as C1R-MICA*001, C1R-MICA*004, C1R-MICA*007 and C1R-MICA*008. Binding was analyzed by flow cytometry.
(§2) Cells were harvested and stained in PBS 1×/BSA 0.2%/EDTA 2 mM buffer during 30 minutes at 4° C. using a dose-range of the anti-MICA mAbs. After two washes in staining buffer, cells were stained for 30 min at 4° C. with mouse anti-human IgG1-PE monoclonal antibodies (1/11). After two washes, stainings were acquired on a BD FACS Canto II and analyzed using the FlowJo software.

[2] = target: T2, human MICA allele MICA*008 (human, UniProt Q29983 24-297); experiment: flow cytometry, C1R-MICA*008 transfectant cells
T2 construct: Expressed on transfected C1R cells; also called MICA*08; C1R-MICA*008
T2 chain: T1 sequence with T24A, C36Y, K125E, M129V, K173E, G206S, W210R, T213I, S215T, Q251R
Method: as §1, §2

[3] = target: T3, human MICA allele MICA*004 (human, UniProt Q29983 24-297); experiment: flow cytometry, C1R-MICA*004 transfectant cells
T3 construct: Expressed on transfected C1R cells; also called MICA*04; C1R-MICA*004
T3 chain: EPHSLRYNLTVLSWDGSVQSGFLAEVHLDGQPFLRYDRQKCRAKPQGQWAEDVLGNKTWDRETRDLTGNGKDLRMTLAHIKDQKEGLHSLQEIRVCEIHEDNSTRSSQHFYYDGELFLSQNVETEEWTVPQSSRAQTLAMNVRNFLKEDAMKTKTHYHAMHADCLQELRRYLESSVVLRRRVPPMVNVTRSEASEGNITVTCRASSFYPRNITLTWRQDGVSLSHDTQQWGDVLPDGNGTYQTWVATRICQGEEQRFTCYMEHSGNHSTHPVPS
Method: as §1, §2

[4] = target: T4, human MICA allele MICA*007 (human, UniProt Q29983 24-297); experiment: flow cytometry, C1R-MICA*007 transfectant cells
T4 construct: Expressed on transfected C1R cells; also called MICA*07; C1R-MICA*007
T4 chain: T1 sequence with T24A, K125E
Method: as §1, §2

[5] = target: T1, human MICA allele MICA*001; experiment: flow cytometry, C1R-MICA*001 transfectant cells; reference: parental antibody
Method: as §1, §2

[6] = target: T2, human MICA allele MICA*008; experiment: cell-based or functional assay
[7] = target: T1, human MICA allele MICA*001; experiment: cell-based or functional assay

EC50 [1]: 0.318 µg/mL
EC50 [2]: 0.0515 µg/mL
EC50 [3]: 0.0438 µg/mL
EC50 [4]: 0.0519 µg/mL
B3: mAb9 (antibody, V domains shown)
VH: QVQLQESGPGLVKPSETLSLTCTVSGYSITSDYAWNWIRQPPGKGLEWMGFVSYSGTTKYNPSLKSRVTISRDTSENQFSLKLSSVTAADTAVYYCARGYGFDYWGQGTTVTVSS
VL: EIVLTQSPATLSLSPGERATLSCSATSSISSIYFHWYQQKPGQAPRLLIYRTSNLASGIPARFSGSGSGTDYTLTISSLEPEDVAVYYCQQGTTIPFTFGQGTKLEIK
notes: Produced in CHO cells as human IgG1 with huCk constant domain

EC50 [1]: 0.151 µg/mL
EC50 [2]: 0.0699 µg/mL
EC50 [3]: 0.0381 µg/mL
EC50 [4]: 0.0502 µg/mL
fold improvement in affinity compared to the parental antibody [5]: ~3 fold
B4: mAb2 (antibody, V domains shown)
VH: B3 VH with M49I, E76K
VL: B3 VL with D71S, V84F
notes: as for B3

EC50 [1]: 0.318 µg/mL
EC50 [2]: 0.0958 µg/mL
EC50 [3]: 0.0762 µg/mL
EC50 [4]: 0.0493 µg/mL
B9: mAb5 (antibody, V domains shown)
VH: B3 VH with E76K
VL: B3 VL with D71S, V84F
notes: as for B3

EC50 [1]: 0.288 µg/mL
EC50 [2]: 0.0871 µg/mL
EC50 [3]: 0.0616 µg/mL
EC50 [4]: 0.0668 µg/mL
B10: mAb7 (antibody, V domains shown)
VH: B3 VH
VL: B3 VL with V84F
notes: as for B3

The next lines start with the binder.

B1: mAb4 (antibody, V domains shown)
VH: B3 VH with E76K
VL: B3 VL with V84F
notes: as for B3
EC50 [1]: 0.316 µg/mL
EC50 [2]: 0.0859 µg/mL
EC50 [3]: 0.063 µg/mL
EC50 [4]: 0.0875 µg/mL

B2: mAb8 (antibody, V domains shown)
VH: B3 VH
VL: B3 VL with D71S, V84F
notes: as for B3
EC50 [1]: 0.191 µg/mL
EC50 [2]: 0.0551 µg/mL
EC50 [3]: 0.0481 µg/mL
EC50 [4]: 0.0462 µg/mL

B5: mAb12 (antibody, V domains shown)
VH: B3 VH with V68I
VL: B3 VL
notes: as for B3
EC50 [1]: 0.453 µg/mL
EC50 [2]: 0.0642 µg/mL
EC50 [3]: 0.0672 µg/mL
EC50 [4]: 0.086 µg/mL

B6: mAb3 (antibody, V domains shown)
VH: B3 VH with M49I, E76K
VL: B3 VL
notes: as for B3
EC50 [1]: 0.265 µg/mL
EC50 [2]: 0.0822 µg/mL
EC50 [3]: 0.0608 µg/mL
EC50 [4]: 0.0612 µg/mL

B7: mAb1 (antibody, V domains shown)
VH: B3 VH with M49I, E76K
VL: B3 VL with V84F
notes: Produced in CHO cells as human IgG1 with huCk constant domain; also called anti-MICA mAb1; anti-MICA antibody mAb1
EC50 [1]: 0.184 µg/mL
EC50 [2]: 0.0612 µg/mL
EC50 (read off the curve), ADCC % specific lysis [panel C1R MICA*008] [6]: ~0.0002 µg/mL
EC50 (read off the curve), ADCC % specific lysis [panel C1R MICA*001] [7]: ~0.003 µg/mL
EC50 [3]: 0.0417 µg/mL
EC50 [4]: 0.033 µg/mL
fold improvement in affinity compared to the parental antibody [5]: 2.4 fold

B8: mAb6 (antibody, V domains shown)
VH: B3 VH with E76K
VL: B3 VL
notes: as for B3
EC50 [1]: 0.407 µg/mL
EC50 [2]: 0.0953 µg/mL
EC50 [3]: 0.0838 µg/mL
EC50 [4]: 0.0718 µg/mL

B11: mAb11 (antibody, V domains shown)
VH: B3 VH with V68I
VL: B3 VL with D71S, V84F
notes: as for B3
EC50 [1]: 0.32 µg/mL
EC50 [2]: 0.0789 µg/mL
EC50 [3]: 0.0614 µg/mL
EC50 [4]: 0.0513 µg/mL

B12: mAb10 (antibody, V domains shown)
VH: B3 VH with V68I
VL: B3 VL with V84F
notes: as for B3
EC50 [1]: 0.307 µg/mL
EC50 [2]: 0.144 µg/mL
EC50 [3]: 0.0631 µg/mL
EC50 [4]: 0.0498 µg/mL
